Measured values taken from paper PMC10975569.

B1: pleurotolysin B (Δ48PlyB) (domain or fragment)
chain: SQAGDTLNDVIQDPTRRNKLINDNNLLKGIIMGRDGPVPSSRELIVRPDTLRAIINNRATIETTTMEAEFTETLMESNYNSASVKVSAPFITANSEYSESSSFKNTETEKSMYTSSRYLFPQGRIDFTTPDSGFDDVIKLSPQFTSGVQAALAKATGTEKREALQNLFQEYGHVFRTKVHIGGVLSAHTMETFSRSENETEVKQDVKAGLEGAVKGWGGGATAGHGNTQGTITTSQNRKLNVKYIVNGGDYTKIQNTEEWVASTNQSEHWRVIEVTEVTAVADLLPQPIRGQVKDLLKPLLGKWVDVEKVPGLESLPVSVYRPKGAIPAGWFWLGDTADASKALLVKPTLPARSGRNPALTSLHQGSGMTEQPFVDLPQYQYLSTYFGSFAHDTPPGSTLRGLRPDHVLPGRYEMHGDTISTAVYVTRPVDVPFPEDECFDLKSLVRVKLPGSGNPPKPRSALKKSMVLFDSGEK

Experiments:
[1] = target: heterolysin A (H. irregulare TC 32-1)
[2] = target: T1, ostreolysin A6 (P. ostreatus) (UniProt P83467)
T1 sequence: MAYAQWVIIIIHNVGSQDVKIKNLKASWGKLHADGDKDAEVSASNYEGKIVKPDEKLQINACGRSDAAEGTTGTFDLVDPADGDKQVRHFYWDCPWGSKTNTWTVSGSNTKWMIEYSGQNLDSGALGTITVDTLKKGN

| Molecule | time of 100% hemolysis of bovine red blood cells, pH 6.0; NudA 1, 0.1 and 0.01 µM, NudA:NudB 10:1 (0.7 to 48.8 min) (nudolysin A (L. nuda)) | time of 100% hemolysis of bovine red blood cells, pH 7.0; NudA 1 and 0.1 µM, NudA:NudB 10:1 (0.7 to 11.1 min); at 0.01 µM 100% hemolysis did not occur (nudolysin A (L. nuda)) | time of 100% hemolysis of bovine red blood cells, pH 8.0; NudA 1 µM, NudA:NudB 10:1; at 0.1 and 0.01 µM 100% hemolysis did not occur (nudolysin A (L. nuda)) | time of 100% hemolysis of bovine red blood cells, pH 6.0; HetA 1, 0.1 and 0.01 µM, HetA:PlyB 10:1 (0.7 to 9.8 min) [1] | time of 100% hemolysis of bovine red blood cells, pH 7.0; HetA 1 and 0.1 µM, HetA:PlyB 10:1 (1.3 to 8.2 min); at 0.01 µM 100% hemolysis did not occur [1] | time of 100% hemolysis of bovine red blood cells, pH 8.0; HetA 1 and 0.1 µM, HetA:PlyB 10:1 (0.7 to 5.3 min); at 0.01 µM 100% hemolysis did not occur [1] | time of 100% hemolysis of bovine red blood cells, pH 6.0; OlyA6 1, 0.1 and 0.01 µM, OlyA6:PlyB 10:1 (0.7 to 2.7 min) [2] | time of 100% hemolysis of bovine red blood cells, pH 7.0; OlyA6 1, 0.1 and 0.01 µM, OlyA6:PlyB 10:1 (0.7 to 20.6 min) [2] | time of 100% hemolysis of bovine red blood cells, pH 8.0; OlyA6 1, 0.1 and 0.01 µM, OlyA6:PlyB 10:1 (0.7 to 26.4 min) [2] |
| --- | --- | --- | --- | --- | --- | --- | --- | --- | --- |
| nudolysin B (Δ30NudB) (domain or fragment) | 48.8 min | 11.1 min | 2 min | – | – | – | – | – | – |
| B1 | – | – | – | 9.8 min | 8.2 min | 5.3 min | 2.7 min | 20.6 min | 26.4 min |
